Target: Streptococcus pyogenes (Spy) dCas9 (Streptococcus pyogenes) (UniProt Q99ZW2)
Experiment: cell-based or functional assay

Work on AcrIIA2 (LMOG_03147) yielded an RFP fluorescence relative to a strain with no guide RNA (dCas9-based repression of a chromosomal RFP reporter in E. coli) of 25%.
AcrIIA4 gave an RFP fluorescence relative to a strain with no guide RNA (dCas9-based repression of a chromosomal RFP reporter in E. coli) of 85%.

— patent US20200087354A1
